Data set [1] addresses T1, NF-kB p65 (RelA), recombinant (Homo sapiens, UniProt Q04206 1-551). Put plainly: EMSA, supershift. (Mobility shift assays separate free from complexed probe on a gel.)
Data set [2] has as its target T1, NF-kB p65 (RelA), recombinant. Put plainly: competition EMSA.

T1 sequence (Q04206 whole entry): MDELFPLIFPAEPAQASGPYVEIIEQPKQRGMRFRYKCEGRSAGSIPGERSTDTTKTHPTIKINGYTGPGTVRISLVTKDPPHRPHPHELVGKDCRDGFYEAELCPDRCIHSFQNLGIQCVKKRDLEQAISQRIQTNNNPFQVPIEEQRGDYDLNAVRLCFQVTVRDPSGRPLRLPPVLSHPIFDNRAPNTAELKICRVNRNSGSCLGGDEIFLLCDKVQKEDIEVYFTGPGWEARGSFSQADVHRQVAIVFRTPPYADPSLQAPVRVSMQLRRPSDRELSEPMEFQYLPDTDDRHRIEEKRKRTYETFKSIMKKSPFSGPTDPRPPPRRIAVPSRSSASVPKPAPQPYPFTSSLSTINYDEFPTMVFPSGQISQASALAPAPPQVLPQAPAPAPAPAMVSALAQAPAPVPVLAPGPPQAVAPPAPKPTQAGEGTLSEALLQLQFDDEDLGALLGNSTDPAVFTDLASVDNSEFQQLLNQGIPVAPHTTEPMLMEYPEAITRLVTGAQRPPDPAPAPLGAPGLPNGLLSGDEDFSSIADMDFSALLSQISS

B1: PLCB2 -1652/-1628 WT NF-kB probe (dsDNA)
DNA 1: CTGTGCTGGGAATTCCCTTAGCTCC
DNA 2: GGAGCTAAGGGAATTCCCAGCACAG
As for B1, the binding result in data set [1] is “binds”.

B2: Mutant 2 (… to CCCTTAAGGG) (dsDNA)
DNA 1: CTGTGCTCCCTTAAGGGTTAGCTCC
DNA 2: GGAGCTAACCCTTAAGGGAGCACAG
As for B2, the binding result in data set [2] is listed as “no binding”.

B3: Mutant 1 (NF-kB site deleted) (dsDNA)
DNA 1: CTGTGCTTTAGCTCC
DNA 2: GGAGCTAAAGCACAG
In the case of B3, the binding result in data set [2] is “no binding”.

For the origin of these results see paper PMC6919569.
